Reference: publication PMC11996608 (Nature structural & molecular biology, 2025)

Key:
Eco RNAP β subunit = Eco RNAP β subunit (Escherichia coli, UniProt P0A8V2 1-1342); assay: cryo-EM structure
[1] = biological target: Eco RNAP β' subunit (β'-PPX-His10) (Escherichia coli, UniProt P0A8T7 1-1407); assay: cryo-EM structure
Eco RNAP β' subunit (β'-PPX-His10), sequence (P0A8T7 whole entry): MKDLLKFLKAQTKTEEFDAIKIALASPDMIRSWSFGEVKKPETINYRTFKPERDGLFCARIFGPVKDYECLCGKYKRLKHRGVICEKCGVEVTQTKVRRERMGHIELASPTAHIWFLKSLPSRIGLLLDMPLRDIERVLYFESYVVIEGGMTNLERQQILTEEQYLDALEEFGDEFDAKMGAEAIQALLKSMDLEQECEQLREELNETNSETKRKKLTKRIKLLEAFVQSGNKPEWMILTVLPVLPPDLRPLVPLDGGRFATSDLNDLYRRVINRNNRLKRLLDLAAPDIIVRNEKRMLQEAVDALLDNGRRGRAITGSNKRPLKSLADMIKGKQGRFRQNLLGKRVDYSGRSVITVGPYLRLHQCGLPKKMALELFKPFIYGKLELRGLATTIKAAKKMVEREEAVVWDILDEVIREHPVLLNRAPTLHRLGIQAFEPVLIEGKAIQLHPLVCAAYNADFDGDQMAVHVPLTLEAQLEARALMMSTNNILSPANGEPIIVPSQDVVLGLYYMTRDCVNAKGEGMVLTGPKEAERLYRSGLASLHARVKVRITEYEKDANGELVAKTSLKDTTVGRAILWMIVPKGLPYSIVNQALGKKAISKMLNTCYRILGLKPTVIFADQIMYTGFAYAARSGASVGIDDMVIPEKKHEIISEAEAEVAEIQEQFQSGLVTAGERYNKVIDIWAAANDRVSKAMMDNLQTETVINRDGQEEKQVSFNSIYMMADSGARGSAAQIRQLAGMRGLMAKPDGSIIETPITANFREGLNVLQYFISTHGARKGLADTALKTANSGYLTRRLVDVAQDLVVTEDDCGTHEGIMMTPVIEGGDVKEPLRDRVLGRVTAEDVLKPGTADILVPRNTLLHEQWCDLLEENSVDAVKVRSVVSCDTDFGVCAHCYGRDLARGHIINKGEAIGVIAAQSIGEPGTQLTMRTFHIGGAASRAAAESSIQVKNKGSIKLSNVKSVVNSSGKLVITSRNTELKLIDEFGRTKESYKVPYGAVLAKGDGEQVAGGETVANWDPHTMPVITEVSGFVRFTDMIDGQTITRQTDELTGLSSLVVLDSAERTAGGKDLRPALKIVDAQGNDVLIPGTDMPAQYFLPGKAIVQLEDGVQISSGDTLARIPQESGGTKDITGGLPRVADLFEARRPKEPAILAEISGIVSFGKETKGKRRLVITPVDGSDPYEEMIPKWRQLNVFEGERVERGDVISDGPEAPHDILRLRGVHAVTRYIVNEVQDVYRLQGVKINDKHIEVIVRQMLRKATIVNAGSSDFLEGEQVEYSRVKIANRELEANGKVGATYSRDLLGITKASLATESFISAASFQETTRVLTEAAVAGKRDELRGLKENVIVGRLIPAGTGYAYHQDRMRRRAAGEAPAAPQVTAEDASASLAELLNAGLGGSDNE

Eco RNAP β subunit, sequence (P0A8V2 whole entry): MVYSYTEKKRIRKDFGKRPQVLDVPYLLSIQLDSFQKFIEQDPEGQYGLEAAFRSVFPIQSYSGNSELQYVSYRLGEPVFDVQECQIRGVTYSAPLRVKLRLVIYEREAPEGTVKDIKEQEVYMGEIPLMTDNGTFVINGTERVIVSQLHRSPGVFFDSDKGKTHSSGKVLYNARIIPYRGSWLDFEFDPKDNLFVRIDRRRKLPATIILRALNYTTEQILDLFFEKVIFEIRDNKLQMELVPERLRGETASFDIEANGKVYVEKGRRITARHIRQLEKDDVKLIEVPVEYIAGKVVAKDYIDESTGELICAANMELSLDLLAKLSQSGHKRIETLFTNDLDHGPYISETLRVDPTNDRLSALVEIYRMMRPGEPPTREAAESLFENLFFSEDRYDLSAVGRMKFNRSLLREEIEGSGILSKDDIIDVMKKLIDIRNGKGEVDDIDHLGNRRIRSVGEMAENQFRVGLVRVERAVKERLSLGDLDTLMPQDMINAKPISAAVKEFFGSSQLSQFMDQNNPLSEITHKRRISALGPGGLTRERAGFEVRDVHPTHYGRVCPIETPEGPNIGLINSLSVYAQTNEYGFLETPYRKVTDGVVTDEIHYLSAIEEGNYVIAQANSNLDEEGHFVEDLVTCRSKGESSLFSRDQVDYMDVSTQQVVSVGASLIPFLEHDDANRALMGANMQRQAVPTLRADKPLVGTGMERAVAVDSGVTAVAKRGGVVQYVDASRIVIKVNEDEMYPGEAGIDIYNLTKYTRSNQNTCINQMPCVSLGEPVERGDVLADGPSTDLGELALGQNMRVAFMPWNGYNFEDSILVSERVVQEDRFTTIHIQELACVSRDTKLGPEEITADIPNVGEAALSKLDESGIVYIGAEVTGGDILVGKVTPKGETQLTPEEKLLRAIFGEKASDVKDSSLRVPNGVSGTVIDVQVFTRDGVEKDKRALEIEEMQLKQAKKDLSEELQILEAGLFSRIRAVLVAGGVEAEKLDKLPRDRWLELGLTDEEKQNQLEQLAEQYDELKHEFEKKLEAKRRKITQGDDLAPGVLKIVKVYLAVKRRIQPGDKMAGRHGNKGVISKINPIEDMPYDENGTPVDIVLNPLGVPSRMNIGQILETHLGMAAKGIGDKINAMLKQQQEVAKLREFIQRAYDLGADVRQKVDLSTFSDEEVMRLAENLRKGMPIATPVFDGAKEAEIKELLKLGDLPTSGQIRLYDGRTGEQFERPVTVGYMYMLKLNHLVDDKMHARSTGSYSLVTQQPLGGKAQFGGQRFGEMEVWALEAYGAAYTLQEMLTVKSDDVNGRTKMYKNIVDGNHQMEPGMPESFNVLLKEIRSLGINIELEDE

B1: Eco RapA (N-terminally His6-tagged full-length RapA) (enzyme, Escherichia coli, UniProt P60240 1-968, looked up)
chain: MPFTLGQRWISDTESELGLGTVVAVDARTVTLLFPSTGENRLYARSDSPVTRVMFNPGDTITSHDGWQMQVEEVKEENGLLTYIGTRLDTEESGVALREVFLDSKLVFSKPQDRLFAGQIDRMDRFALRYRARKYSSEQFRMPYSGLRGQRTSLIPHQLNIAHDVGRRHAPRVLLADEVGLGKTIEAGMILHQQLLSGAAERVLIIVPETLQHQWLVEMLRRFNLRFALFDDERYAEAQHDAYNPFDTEQLVICSLDFARRSKQRLEHLCEAEWDLLVVDEAHHLVWSEDAPSREYQAIEQLAEHVPGVLLLTATPEQLGMESHFARLRLLDPNRFHDFAQFVEEQKNYRPVADAVAMLLAGNKLSNDELNMLGEMIGEQDIEPLLQAANSDSEDAQSARQELVSMLMDRHGTSRVLFRNTRNGVKGFPKRELHTIKLPLPTQYQTAIKVSGIMGARKSAEDRARDMLYPERIYQEFEGDNATWWNFDPRVEWLMGYLTSHRSQKVLVICAKAATALQLEQVLREREGIRAAVFHEGMSIIERDRAAAWFAEEDTGAQVLLCSEIGSEGRNFQFASHMVMFDLPFNPDLLEQRIGRLDRIGQAHDIQIHVPYLEKTAQSVLVRWYHEGLDAFEHTCPTGRTIYDSVYNDLINYLASPDQTEGFDDLIKNCREQHEALKAQLEQGRDRLLEIHSNGGEKAQALAESIEEQDDDTNLIAFAMNLFDIIGINQDDRGDNMIVLTPSDHMLVPDFPGLSEDGITITFDREVALAREDAQFITWEHPLIRNGLDLILSGDTGSSTISLLKNKALPVGTLLVELIYVVEAQAPKQLQLNRFLPPTPVRMLLDKNGNNLAAQVEFETFNRQLNAVNRHTGSKLVNAVQQDVHAILQLGEAQIEKSARALIDAARNEADEKLSAELSRLEALRAVNPNIRDDELTAIESNRQQVMESLDQAGWRLDALRLIVVTHQ
binding result (Eco RNAP β subunit): binds | binding result [1]: binds
